According to US20230192896A1 (published 2023):

Molecular target: free FIXa (activated Factor IX) (UniProt P00740 47-191; P00740 227-461)
Assay: BLI

Row | Binder | Kd [nM]
1 | BIIB-9-615 (antibody, V domains shown) VH: QVQLVQSGAEVKKPGASVKVSCKASGYTFTSYYMHWVRQAPGQGLEWMGIINPSGGSTSYAQKFQGRVTMTRDTSTSTVYMELSSLRSEDTAVYYCARDSPSSSSYWSLDLWGRGTLVTVSS VL: EIVLTQSPATLSLSPGERATLSCRASQSVSSYLAWYQQKPGQAPRLLIYDASNRATGIPARFSGSGSGTDFTLTISSLEPEDFAVYYCQQSCHWPWTFGGGTKVEIK | 23.2
2 | BIIB-9-433 (antibody, V domains shown) VH: QLQLQESGPGLVKPSETLSLTCTVSGGSISSSRYYWGWIRQPPGKGLEWIGSIYYSGSTYYNPSLKSRVTISVDTSKNQFSLKLSSVTAADTAVYYCARDAGYSAELFDYWGQGTLVTVSS VL: EIVLTQSPATLSLSPGERATLSCRASQSVSSYLAWYQQKPGQAPRLLIYDASNRATGIPARFSGSGSGTDFTLTISSLEPEDFAVYYCQQSSAYPPTFGGGTKVEIK | 16.4
3 | BIIB-9-606 (antibody, V domains shown) VH: QVQLVQSGAEVKKPGASVKVSCKASGYTFTSYYMHWVRQAPGQGLEWMGIINPSGGSTSYAQKFQGRVTMTRDTSTSTVYMELSSLRSEDTAVYYCARTKWSSSPYGMDVWGQGTTVTVSS VL: not shown | 16
4 | BIIB-9-582 (antibody, V domains shown) VH: QVQLVQSGAEVKKPGASVKVSCKASGYTFTSYYMVWVRQAPGQGLEWMGIINPSGGSTSYAQKFQGRVTMTRDTSTSTVYMELSSLRSEDTAVYYCARAPTYFYSYGMDVWGQGTTVTVSS VL: not shown | 14.2
5 | BIIB-9-470 (antibody, V domains shown) VH: EVQLVESGGGLVQPGGSLRLSCAASGFTFSSYWMSWVRQAPGKGLEWVANIKQDGSEKYYVDSVKGRFTISRDNAKNSLYLQMNSLRAEDTAVYYCARDAGIAWALDYWGQGTLVTVS VL: DIQMTQSPSTLSASVGDRVTITCRASQSISSWLAWYQQKPGKAPKLLIYKASSLESGVPSRFSGSGSGTEFTLTISSLQPDDFATYYCQHPHSWTFGGGTKVEIK | 19.6
6 | BIIB-9-465 (antibody, V domains shown) VH: QVQLVQSGAEVKKPGASVKVSCKASGYTFTSYYMVWVRQAPGQGLEWMGIINPSGGSTSYAQKFQGRVTMTRDTSTSTVYMELSSLRSEDTAVYYCARSPTDGYYFDLWGRGTLVTVSS VL: DIQMTQSPSTLSASVGDRVTITCRASQSINSWLAWYQQKPGKAPKLLISDASSLESGVPSRFSGSGSGTEFTLTISSLQPDDFATYYCQQYEIFPFTFGGGTKVEIK | 19.8
7 | BIIB-9-460 (antibody, V domains shown) VH: QVQLVQSGAEVKKPGASVKVSCKASGYTFTSYYMHWVRQAPGQGLEWMGIINPSGGSTSYAQKFQGRVTMTRDTSTSTVYMELSSLRSEDTAVYYCARDISTDGESSLYYYMDVWGKGTTVTVSS VL: EIVMTQSPATLSVSPGERATLSCRASQSVSSNLAWYQQKPGQAPRLLIYGASTRATGIPARFSGSGSGTEFTLTISSLQSEDFAVYYCQQHDNFPFTFGGGTKVEIK | 20.1
8 | BIIB-9-590 (antibody, V domains shown) VH: QVQLVQSGAEVKKPGASVKVSCKASGYTFTSYYMHWVRQAPGQGLEWMGIINPSGGSTSYAQKFQGRVTMTRDTSTSTVYMELSSLRSEDTAVYYCARDQEWAYYGMDVWGQGTTVTVSS VL: EIVLTQSPATLSLSPGERATLSCRASQSVSSYLAWYQQKPGQAPRLLIYDASNRATGIPARFSGSGSGTDFTLTISSLEPEDFAVYYCQQVDNFPLTFGGGTKVEIK | 11.3
9 | BIIB-9-475 (antibody, V domains shown) VH: QVQLQESGPGLVKPSETLSLTCTVSGGSISSYYWSWIRQPPGKGLEWIGSIYYSGSTNYNPSLKSRVTISVDTSKNQFSLKLSSVTAADTAVYYCARDVGGYDYGVGAFDIWGQGTMVTVSS VL: DIQMTQSPSSLSASVGDRVTITCQASQDITNYLNWYQQKPGKAPKLLIYDASNLETGVPSRFSGSGSGTDFTFTISSLQPEDIATYYCQQSSNFPLTFGGGTKVEIK | 5.93
10 | BIIB-9-397 (antibody, V domains shown) VH: QVQLQESGPGLVKPSETLSLTCAVSGYSISSGYYWAWIRQPPGKGLEWIGSIYHSGSTYYNPSLKSRVTISVDTSKNQFSLKLSSVTAADTAVYYCARDVWYVGGFDPWGQGTLVTVSS VL: DIQMTQSPSSLSASVGDRVTITCQASQDISNYLNWYQQKPGKAPKLLIYDASNLETGVPSRFSGSGSGTDFTFTISSLQPEDIATYYCQQSDDHPPTFGGGTKVEIK | 4.89
11 | BIIB-9-568 (antibody, V domains shown) VH: QLQLQESGPGLVKPSETLSLTCTVSGGSISSSSYYWGWIRQPPGKGLEWIGSIYYSGSTYYNPSLKSRVTISVDTSKNQFSLKLSSVTAADTAVYYCARDLGYAATYFDLWGRGTLVTVSS VL: DIQMTQSPSSLSASVGDRVTITCQASQDISNYLNWYQQKPGKAPKLLIYDASNLETGVPSRFSGSGSGTDFTFTISSLQPEDIATYYCQQYDDYLTFGGGTKVEIK | 5.5
12 | BIIB-9-484 (antibody, V domains shown) VH: EVQLVESGGGLVKPGGSLRLSCAASGFTFSSYSMNWVRQAPGKGLEWVSSISSSSSYIYYADSVKGRFTISRDNAKNSLYLQMNSLRAEDTAVYYCARDVGGYAGYYGMDVWGQGTTVTVSS VL: not shown | 37.7
13 | BIIB-9-585 (antibody, V domains shown) VH: QLQLQESGPGLVKPSETLSLTCTVSGGSISSSDYYWGWIRQPPGKGLEWIGSIYYSGSTYYNPSLKSRVTISVDTSKNQFSLKLSSVTAADTAVYYCAREVGTYYYGLDFWFDPWGQGTLVTVSS VL: DIQMTQSPSSVSASVGDRVTITCRASQGISSWLAWYQQKPGKAPKLLIYAASSLQSGVPSRFSGSGSGTDFTLTISSLQPEDFATYYCQQANSYPITFGGGTKVEIK | 12.4
14 | BIIB-9-415 (antibody, V domains shown) VH: QVQLVQSGAEVKKPGASVKVSCKASGYTFTSYYMHWVRQAPGQGLEWMGIINPSGGSTSYAQKFQGRVTMTRDTSTSTVYMELSSLRSEDTAVYYCARDGLSSGYYWDNWGQGTLVTVSS VL: DIQMTQSPSSVSASVGDRVTITCRASQGIDSWLAWYQQKPGKAPKLLIYAASSLQSGVPSRFSGSGSGTDFTLTISSLQPEDFATYYCQQGDAFPFTFGGGTKVEIK | 14.4
15 | BIIB-9-414 (antibody, V domains shown) VH: QVQLVQSGAEVKKPGASVKVSCKASGYTFTSYYMHWVRQAPGQGLEWMGIINPSGGSTSYAQKFQGRVTMTRDTSTSTVYMELSSLRSEDTAVYYCARDPYSYGMYYFDYWGQGTLVTVSS VL: DIQMTQSPSSVSASVGDRVTITCRASQGISSWLAWYQQKPGKAPKLLIYAASSLQSGVPSRFSGSGSGTDFTLTISSLQPEDFATYYCQQGDVFPFTFGGGTKVEIK | 16.6

Results, then the binder that gave them:

Row | Kd [nM] | Binder
16 | 24.2 | BIIB-9-1270 (antibody, V domains shown) VH: QVQLVQSGAEVKKPGASVKVSCKASGYTFTSYYMHWVRQAPGQGLEWMGIINPSGGSTSYAQKFQGRVTMTRDTSTSTVYMELSSLRSEDTAVYYCARDTGGYAFDIWGQGTLVTVSS VL: EIVLTQSPATLSLSPGERATLSCRASQSVSSYLAWYQQKPGQAPRLLIYDASNRATGIPARFSGSGSGTDFTLTISSLEPEDFAVYYCQQSADFPFTFGGGTKVEIK
17 | 44.5 | BIIB-9-1271 (antibody, V domains shown) VH: QVQLVQSGAEVKKPGASVKVSCKASGYTFTSYYMHWVRQAPGQGLEWMGIINPSGGSTSYAQKFQGRVTMTRDTSTSTVYMELSSLRSEDTAVYYCARDTGGYAFDIWGQGTLVTVSS VL: EIVMTQSPATLSVSPGERATLSCRASQSVSSNLAWYQQKPGQAPRLLIYGASTRATGIPARFSGSGSGTDFTLTISSLQPEDFATYYCQQGFSFPFTFGGGTKVEIK
18 | 41.2 | BIIB-9-1284 (antibody, V domains shown) VH: QVQLVQSGAEVKKPGASVKVSCKASGYTFTSYYMVWVRQAPGQGLEWMGIINPSGGSTSYAQKFQGRVTMTRDTSTSTVYMELSSLRSEDTAVYYCARVPTYRYSYLAFDIWGQGTMVTVSS VL: EIVLTQSPATLSVSPGERATLSCRASQSVGSNLAWYQQKPGQAPRLLIYGASTRATGIPARFSGSGSGTEFTLTISSLQSEDFAVYYCQQHNHLPITFGGGTKVEIK
19 | 25.6 | BIIB-9-629 (antibody, V domains shown) VH: QVQLVQSGAEVKKPGASVKVSCKASGYTFTSYYMHWVRQAPGQGLEWMGVINPSGGSTSYAQKFQGRVTMTRDTSTSTVYMELSSLRSEDTAVYYCARDPSQDYATGTGWFDPWGQGTLVTVSS VL: DIQLTQSPSSLSASVGDRVTITCQASQDISNYLNWYQQKPGKAPKLLIYDASNLETGVPSRFSGSGSGTDFTFTISSLQPEDIATYYCQQLDSLPPTFGGGTKVEIK
20 | 45.1 | BIIB-9-1269 (antibody, V domains shown) VH: QVQLVQSGAEVKKPGASVKVSCKASGYTFTSYYMHWVRQAPGQGLEWMGIINPSGGSTSYAQKFQGRVTMTRDTSTSTVYMELSSLRSEDTAVYYCARDRGQYYHFDLWGRGTLVTVSS VL: DIQMTQSPSSVSASVGDRVAITCRASQGISSWLAWYQQKPGKAPKLLIYAASSLQSGVPSRFSGSGSGTDFTLTISSLQPEDFATYYCQQASSFPFTFGGGTKVEIK
21 | 37 | BIIB-9-1283 (antibody, V domains shown) VH: QVQLVQSGAEVKKPGASVKVSCKASGYTFTSYYMVWVRQAPGQGLEWMGIINPSGGSTSYAQKFQGRVTMTRDTSTSTVYMELSSLRSEDTAVYYCARVPTYRYSYLAFDIWGQGTMVTVSS VL: DIQMTQSPSSVSASVGDRVTITCRASQGISSWLAWYQQKPGKAPKLLIYAASSLQSGVPSRFSGSGSGTDFTLTISSLQPEDFATYYCQQASSFPPTFGGGTKVEIK
22 | 28.4 | BIIB-9-1274 (antibody, V domains shown) VH: QVQLVQSGAEVKKPGASVKVSCKASGYTFTSYYMHWVRQAPGQGLEWMGIINPSGGSTSYAQKFQGRVTMTRDTSTSTVYMELSSLRSEDTAVYYCARDTGGYAFDIWGQGTLVTVSS VL: DIQMTQSPSSVSASVGDRVTITCRASQGISSWLAWYQQKPGKAPKLLIYAASSLQSGVPSRFSGSGSGTDFTLTISSLQPEDFATYYCQQANSFPFTFGGGTKVEIK
23 | 45.6 | BIIB-9-1272 (antibody, V domains shown) VH: QVQLVQSGAEVKKPGASVKVSCKASGYTFTSYYMHWVRQAPGQGLEWMGIINPSGGSTSYAQKFQGRVTMTRDTSTSTVYMELSSLRSEDTAVYYCARDTGGYAFDIWGQGTLVTVSS VL: DIQMTQSPSSVSASVGDRVTITCRASQGISSWLAWYQQKPGKAPKLLIYAASSLQSGVPSRFSGSGSGTDFTLTISSLQPEDFATYYCQQASSFPFTFGGGTKVEIK
